Results: PMC10960832

Columns and labels:
[1] = biological target: C-terminal avi tagged 53BP1 Tudor domain, biotinylated (human) (UniProt Q12888); assay: AlphaScreen or HTRF; TR-FRET competition: 0.5 uM His-tagged i53, 0.5 uM C-terminal avi tagged 53BP1, 5 nM europium anti-His antibody, 0.5x streptavidin-XL665, i53 variant 5000-4.8 nM; 50 mM Tris pH 7.5, 150 mM NaCl, 0.02% Tween-20, 0.05% BSA; 2 h at room temperature; non-linear 4 parameter curve …
[2] = biological target: 53BP1 Tudor domain (53BP1 residues 1484–1603) (human) (UniProt Q12888)

Row | Substance | EC50 [1] | potency in increasing HDR / decreasing NHEJ at HBB in HSPCs (dose response of purified protein in the electroporation mix, HBB-SNP AAV6), relative to parental i53 [2]
1 | i53 (WT) (designed binder) | 1.08 µM | 
2 | i53 variant L67H (designed binder) | 0.465 µM | 
3 | i53 variant L67H.H68Y (designed binder) | 0.501 µM | 
4 | i53 variant L67R (designed binder) | 0.458 µM | 3 fold
5 | i53 variant T12V.T14H.L67H (designed binder) | 0.338 µM | 3 fold
6 | i53 variant T12Y.T14E.L67R (designed binder) | 0.179 µM | 
